Sequences and labels used below:
B1: GpH7-A5/GpH7-B3 variant K326_20W/GpL16-k0 (antibody, human IgG1, kappa)
heavy 1: not shown
heavy 2: not shown
light: DIVMTQSPLSLPVTPGEPASISCQASESLVHSNRNTYLHWYLQKPGQSPQLLIYKVSNRFSGVPDRFSGSGSGTDFTLKISRVEAEDVGVYYCSQNTHVPPTFGQGTKVEIERTVAAPSVFIFPPSDEQLKSGTASVVCLLNNFYPREAKVQWKVDNALQSGNSQESVTEQDSKDSTYSLSSTLTLSKADYEKHKVYACEVTHQGLSSPVTKSFNRGEC
notes: Alteration in one H chain only; also called He Ab K326_20W
B2: GpH7-A5/GpH7-B3 variant K334_09D/GpL16-k0 (antibody, human IgG1, kappa)
heavy 1: not shown
heavy 2: not shown
light: B1 light
notes: Alteration in one H chain only; also called He Ab K334_09D
B3: GpH7-A5/GpH7-B3 variant K334_14T/GpL16-k0 (antibody, human IgG1, kappa)
heavy 1: not shown
heavy 2: not shown
light: B1 light
notes: Alteration in one H chain only; also called He Ab K334_14T
B4: GpH7-A5/GpH7-B3 variant K334_08L/GpL16-k0 (antibody, human IgG1, kappa)
heavy 1: not shown
heavy 2: not shown
light: B1 light
notes: Alteration in one H chain only; also called He Ab K334_08L
B5: GpH7-A5/GpH7-B3 variant K334_18N/GpL16-k0 (antibody, human IgG1, kappa)
heavy 1: not shown
heavy 2: not shown
light: B1 light
notes: Alteration in one H chain only; also called He Ab K334_18N
B6: GpH7-A5/GpH7-B3 variant K334_05P/GpL16-k0 (antibody, human IgG1, kappa)
heavy 1: not shown
heavy 2: not shown
light: B1 light
notes: Alteration in one H chain only; also called He Ab K334_05P
B7: GpH7-A5/GpH7-B3 variant K334_04F/GpL16-k0 (antibody, human IgG1, kappa)
heavy 1: not shown
heavy 2: not shown
light: B1 light
notes: Alteration in one H chain only; also called He Ab K334_04F
B8: GpH7-A5/GpH7-B3 variant K334_13S/GpL16-k0 (antibody, human IgG1, kappa)
heavy 1: not shown
heavy 2: not shown
light: B1 light
notes: Alteration in one H chain only; also called He Ab K334_13S
B9: GpH7-A5/GpH7-B3 variant K334_15Y/GpL16-k0 (antibody, human IgG1, kappa)
heavy 1: not shown
heavy 2: not shown
light: B1 light
notes: Alteration in one H chain only; also called He Ab K334_15Y
B10: GpH7-A5/GpH7-B3 variant K334_19Q/GpL16-k0 (antibody, human IgG1, kappa)
heavy 1: not shown
heavy 2: not shown
light: B1 light
notes: Alteration in one H chain only; also called He Ab K334_19Q
B11: GpH7-A5/GpH7-B3 variant P271_19Q/GpL16-k0 (antibody, human IgG1, kappa)
heavy 1: not shown
heavy 2: not shown
light: B1 light
notes: Alteration in one H chain only; also called He Ab P271_19Q
B12: GpH7-A5/GpH7-B3 variant Q295_10E/GpL16-k0 (antibody, human IgG1, kappa)
heavy 1: not shown
heavy 2: not shown
light: B1 light
notes: Alteration in one H chain only; also called He Ab Q295_10E
B13: GpH7-A5/GpH7-B3 variant L328_15Y/GpL16-k0 (antibody, human IgG1, kappa)
heavy 1: not shown
heavy 2: not shown
light: B1 light
notes: Alteration in one H chain only; also called He Ab L328_15Y
B14: GpH7-A5/GpH7-B3 variant P271_08L/GpL16-k0 (antibody, human IgG1, kappa)
heavy 1: not shown
heavy 2: not shown
light: B1 light
notes: Alteration in one H chain only; also called He Ab P271_08L
B15: GpH7-A5/GpH7-B3 variant P271_18N/GpL16-k0 (antibody, human IgG1, kappa)
heavy 1: not shown
heavy 2: not shown
light: B1 light
notes: Alteration in one H chain only; also called He Ab P271_18N
B16: GpH7-A5/GpH7-B3 variant K334_03V/GpL16-k0 (antibody, human IgG1, kappa)
heavy 1: not shown
heavy 2: not shown
light: B1 light
notes: Alteration in one H chain only; also called He Ab K334_03V
B17: GpH7-A5/GpH7-B3 variant K334_02A/GpL16-k0 (antibody, human IgG1, kappa)
heavy 1: not shown
heavy 2: not shown
light: B1 light
notes: Alteration in one H chain only; also called He Ab K334_02A
B18: GpH7-A5/GpH7-B3 variant P271_10E/GpL16-k0 (antibody, human IgG1, kappa)
heavy 1: not shown
heavy 2: not shown
light: B1 light
notes: Alteration in one H chain only; also called He Ab P271_10E
B19: GpH7-A5/GpH7-B3 variant P271_01G/GpL16-k0 (antibody, human IgG1, kappa)
heavy 1: not shown
heavy 2: not shown
light: B1 light
notes: Alteration in one H chain only; also called He Ab P271_01G
B20: GpH7-A5/GpH7-B3 variant K334_07I/GpL16-k0 (antibody, human IgG1, kappa)
heavy 1: not shown
heavy 2: not shown
light: B1 light
notes: Alteration in one H chain only; also called He Ab K334_07I
B21: GpH7-A5/GpH7-B3 variant K334_16H/GpL16-k0 (antibody, human IgG1, kappa)
heavy 1: not shown
heavy 2: not shown
light: B1 light
notes: Alteration in one H chain only; also called He Ab K334_16H

The target of the assay is T1, FcγRIa (human, UniProt P12314 16-292).
T1 construct: extracellular domain; also called FcgRI; FcgRIa; not shown: His tag attached to the C terminus
T1 sequence (P12314 16-292): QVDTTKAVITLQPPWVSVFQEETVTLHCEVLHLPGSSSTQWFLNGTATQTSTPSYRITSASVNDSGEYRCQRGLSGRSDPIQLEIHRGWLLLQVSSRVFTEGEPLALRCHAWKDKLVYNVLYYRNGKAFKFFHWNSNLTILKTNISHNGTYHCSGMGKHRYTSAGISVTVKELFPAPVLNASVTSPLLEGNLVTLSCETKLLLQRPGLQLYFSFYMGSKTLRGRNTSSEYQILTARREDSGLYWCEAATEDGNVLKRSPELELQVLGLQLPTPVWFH
Description: SPR (Biacore), relative binding; control HeCon Ab GpH7-A5/GpH7-B3/GpL16-k0.
For B1, the He/Con_1a is 103 % of control (=100).

For the molecule B2, the He/Con_1a was 106 % of control (=100).

With B3, the He/Con_1a was 105 % of control (=100).

Turning to B4, the He/Con_1a was 105 % of control (=100).

As for B5, the He/Con_1a is 105 % of control (=100).

Take B6: the He/Con_1a was 104 % of control (=100).

On to B7, for which the He/Con_1a is 105 % of control (=100).

In the case of B8, the He/Con_1a was 105 % of control (=100).

B9: the He/Con_1a is 105 % of control (=100).

B10: the He/Con_1a is 106 % of control (=100).

For the molecule B11, the He/Con_1a is 103 % of control (=100).

As for B12, the He/Con_1a is 103 % of control (=100).

In the case of B13, the He/Con_1a was 102 % of control (=100).

Regarding B14, the He/Con_1a is 102 % of control (=100).

B15: the He/Con_1a was 103 % of control (=100).

For B16, the He/Con_1a was 105 % of control (=100).

Consider B17, for which the He/Con_1a was 106 % of control (=100).

As for B18, the He/Con_1a is 103 % of control (=100).

Take B19: the He/Con_1a was 105 % of control (=100).

As to B20, the He/Con_1a is 104 % of control (=100).

On to B21, for which the He/Con_1a is 105 % of control (=100).

For the origin of these results see patent US20150344570A1 (published 2015).
